Experimental data taken from PMC6650940, “Investigations of Accessibility of T2/T3 Copper Center of Two-Domain Laccase from Streptomyces griseoflavus Ac-993” (International Journal of Molecular Sciences, 2019).

Tests used:
purified protein [1] = substrate: CCn1c(=NN=c2sc3cc(S(=O)(=O)O)ccc3n2CC)sc2cc(S(=O)(=O)O)ccc21; experiment: purified protein; type: biochemical, Streptomyces griseoflavus; conditions: pH 4.0, 30 °C, Britton-Robinson buffer, 1 mM CuSO4 growth medium
purified protein [2] = substrate: COc1cccc(OC)c1O; experiment: purified protein; type: biochemical, Streptomyces griseoflavus; conditions: pH 9.0, 30 °C, Britton-Robinson buffer, 1 mM CuSO4 growth medium

Protein	Km (purified protein [1]) [µM]	kcat (purified protein [1]) [s⁻¹]	kcat/Km (purified protein [1]) [M⁻¹ s⁻¹]	Km (purified protein [2]) [µM]	kcat (purified protein [2]) [s⁻¹]	kcat/Km (purified protein [2]) [M⁻¹ s⁻¹]
SgfSL wt (two-domain laccase, Streptomyces griseoflavus Small Laccase) (Streptomyces griseoflavus; I170A) (protein, Ni-NTA purified from E. coli (pQE-30); I170A and I170F from pET32-Xa/LIC with thioredoxin tag cut by factor Xa (forward primer encodes AGAAPAGG...); homotrimer) AGAAPAGGEVRRVTMYAERLAGGQMGYGLEKGKASIPGPLIELNEGDTLHVEFENTMDVPVSLHVHGLDYEISSDGTKQNKSHVEPGGTRTYTWRTHEPGRRADGTWRAGSAGYWHYHDHVVGTEHGTGGARNGLYGPVIVRRKGDVLPDATHTIVFNDMTINNRPAHTGPNFEATVGDRVEIVMITHGEYYHTFHMHGHRWADNRTGMLTGPDDPSQVIDNKICGPADSFGFQIIAGEGVGAGAWMYHCHVQSHSDMGMVGLFLVKKPDGTIPGYDPQEHAH	630 ± 110	0.7 ± 0.2	1110	–	–	–
SgfSL wt (two-domain laccase, Streptomyces griseoflavus Small Laccase) (Streptomyces griseoflavus; I170F) (protein, Ni-NTA purified from E. coli (pQE-30); I170A and I170F from pET32-Xa/LIC with thioredoxin tag cut by factor Xa (forward primer encodes AGAAPAGG...); homotrimer) AGAAPAGGEVRRVTMYAERLAGGQMGYGLEKGKASIPGPLIELNEGDTLHVEFENTMDVPVSLHVHGLDYEISSDGTKQNKSHVEPGGTRTYTWRTHEPGRRADGTWRAGSAGYWHYHDHVVGTEHGTGGFRNGLYGPVIVRRKGDVLPDATHTIVFNDMTINNRPAHTGPNFEATVGDRVEIVMITHGEYYHTFHMHGHRWADNRTGMLTGPDDPSQVIDNKICGPADSFGFQIIAGEGVGAGAWMYHCHVQSHSDMGMVGLFLVKKPDGTIPGYDPQEHAH	200 ± 40	0.08 ± 0.01	400	–	–	–
SgfSL wt (two-domain laccase, Streptomyces griseoflavus Small Laccase) (Streptomyces griseoflavus) (protein, Ni-NTA purified from E. coli (pQE-30); I170A and I170F from pET32-Xa/LIC with thioredoxin tag cut by factor Xa (forward primer encodes AGAAPAGG...); homotrimer) AGAAPAGGEVRRVTMYAERLAGGQMGYGLEKGKASIPGPLIELNEGDTLHVEFENTMDVPVSLHVHGLDYEISSDGTKQNKSHVEPGGTRTYTWRTHEPGRRADGTWRAGSAGYWHYHDHVVGTEHGTGGIRNGLYGPVIVRRKGDVLPDATHTIVFNDMTINNRPAHTGPNFEATVGDRVEIVMITHGEYYHTFHMHGHRWADNRTGMLTGPDDPSQVIDNKICGPADSFGFQIIAGEGVGAGAWMYHCHVQSHSDMGMVGLFLVKKPDGTIPGYDPQEHAH	–	–	–	5200 ± 110	0.8 ± 0.09	150
